{
  "source": "paper PMC4442680",
  "about": "“Crystal structure of human nicotinic acid phosphoribosyltransferase” (FEBS Open Bio, 2015)",
  "proteins": {"B1": {"name": "human nicotinic acid phosphoribosyltransferase (enzyme, UniProt Q6XQN6 1-538, looked up)", "chain": "MAAEQDPEARAAARPLLTDLYQATMALGYWRAGRARDAAEFELFFRRCPFGGAFALAAGLRDCVRFLRAFRLRDADVQFLASVLPPDTDPAFFEHLRALDCSEVTVRALPEGSLAFPGVPLLQVSGPLLVVQLLETPLLCLVSYASLVATNAARLRLIAGPEKRLLEMGLRRAQGPDGGLTASTYSYLGGFDSSSNVLAGQLRGVPVAGTLAHSFVTSFSGSEVPPDPMLAPAAGEGPGVDLAAKAQVWLEQVCAHLGLGVQEPHPGERAAFVAYALAFPRAFQGLLDTYSVWRSGLPNFLAVALALGELGYRAVGVRLDSGDLLQQAQEIRKVFRAAAAQFQVPWLESVLIVVSNNIDEEALARLAQEGSEVNVIGIGTSVVTCPQQPSLGGVYKLVAVGGQPRMKLTEDPEKQTLPGSKAAFRLLGSDGSPLMDMLQLAEEPVPQAGQELRVWPPGAQEPCTVRPAQVEPLLRLCLQQGQLCEPLPSLAESRALAQLSLSRLSPEHRRLRSPAQYQVVLSERLQALVNSLCAGQSP", "notes": "human nicotinic acid phosphoribosyltransferase (EC 2.4.2.11); also called human NaPRTase; hNaPRTase"}},
  "target": "the molecule itself",
  "experiment": "crystal structure; ligand-free enzyme; sitting drops, 15 mg/mL protein preincubated with 1 mM Acetyl-CoA and 5 mM DTT, 0.1 M Sodium cacodylate pH 6.5, 1.7 M Sodium acetate, 4 °C; P212121, two molecules per asymmetric unit; 2.9 Å",
  "data": [
    {"protein": "B1", "values": [
      {"measurement": "stoichiometry N", "result": 2}
    ]}
  ]
}
